Data on 51 substances can be found in patent US12042530B2, “Target peptides for immunotherapy and diagnostics” (University of Virginia Patent Foundation, priority 2012, dated 2024).

Non-standard residues stand in square brackets, D forms with d. No end group written: not given here. pT = C[C@@H](OP(=O)(O)O)[C@H](N)C(=O)O; pS = N[C@@H](COP(=O)(O)O)C(=O)O

In assay [1] the target is T1, HLA-B*0702 (HLA-B7) peptide complexes (Homo sapiens, UniProt P01889).
T1 construct: endogenous in cells; host or cells: JY B-lymphoblastoid line; primary ALL, CLL, HCL, AML samples; bone marrow; healthy B and T cells
The assay can be described thus: HLA-B*0702 phosphopeptides associated with leukemia samples (isolation of HLA-associated peptides). The note with it: for Copies/cell class, ALL1: acute lymphoblastic leukemia sample ALL1; for Copies/cell class, HCL1: hairy cell leukemia sample HCL1; for Copies/cell class, B Cell: healthy B cells; for Copies/cell class, T Cell: healthy T cells. From the text: To identify naturally processed tumor-associated phosphopeptides, HLA-A*0201 (HLA-A2) and HLA-B*0702 (HLA-B7) peptide complexes from four (4) chronic lymphocytic leukemia (CLL) tumor samples, a mantle cell lymphoma sample (MCL), one acute lymphoblastic leukemia (ALL), and an acute myeloid leukemia (AML) sample, in addition to healthy splenic T and B-cells and the cultured lymphoblastoid cell line JY were isolated. These efforts yielded 10 HLA-A2-restricted and 86 HLA-B7-restricted phosphopeptide antigens (see Tables 6 and 7).
All cell lines were grown at 37° C. with 5% CO2 in growth medium consisting of RPMI 1640 supplemented with 10% FCS and two mM L-glutamine. Blood or leukapheresis samples were taken from patients with high-burden leukemia in heparin. Tumor cells were recovered by layering the blood over density gradient (Ficoll) and collecting the tumor layer following centrifugation. The tumor was washed in tris-buffered saline (TBS). The purity of the tumor was assessed using flow cytometry and was >98% pure in all cases. For healthy T and B-cell populations, a normal spleen sample processed and tonsil sample was collected and lymphocytes released through mechanical disruption. Mononuclear cells were isolated using a density gradient and 10^9 T cells isolated using anti-CD19 or anti-CD3 microbeads (Miltenyi Biotec Inc., Auburn, California, United States of America) with purity >98% were obtained. Bone marrow sample was obtained from an elective orthopedic procedure and red cell-depleted using hypotonic lysis. This sample was not processed further.
Class I MHC molecules were immunoaffinity purified from the JY cell line or from primary tumor samples, and their associated peptides were extracted as previously described in Zarling et al., 2006. Approximately 1.2-14×10^9 cells were lysed in a solution containing 20 mM Tris-HCl (pH 8.0), 150 mM NaCl, 1% CHAPS, one mM PMSF, five μg/mL aprotinin, 10 μg/mL leupeptin, 10 μg/mL pepstatin A, 1 μg/ml calyculin A, and phosphatase inhibitor (cocktails I and II; Sigma-Aldrich). The mixture was subjected to centrifugation and the resulting supernatant was passed over protein A sepharose pre-loaded with the HLA-A2-specific antibody BB7.2 or HLA-B7-specific antibody MEL Peptides were eluted from the purified class I MHC molecules with 10% acetic acid.

Assay [2] has as its target T2, HLA-B*0702 (Homo sapiens, UniProt P01889).
T2 construct: endogenous in cells; host or cells: melanoma and/or leukemia cells
The assay can be described thus: Phosphopeptides presented in association with class I molecules (HLA-B*0702) on cancer cells: melanoma and/or leukemia. The note with it: cancer type on which the HLA-B*0702 phosphopeptide is presented. The arrangement: key: Melanoma (M); Leukemia (L); L/M: Melanoma (M) and/or Leukemia (L).

As for “267 (APRRY[pS]SSL; listed as Homo sapiens) [compound 267]”, the “Copies/cell class, AML1” value in assay [1] is 1 (1 indicates <1 copy/cell). Further, in assay [2], the L/M result was “L/M”.

In the case of “299 (LPK[pS]PPYTAF; listed as Homo sapiens) [compound 299]”, the L/M entry in assay [2] was “M”.

For “384 (SPVVHQ[pS]L; listed as Homo sapiens) [compound 384]”, in assay [2], the L/M result is “M”.

On to “342 (RPSRS[pS]PGL; listed as Homo sapiens) [compound 342]”, for which the “Copies/cell class, AML1” value in assay [1] is 2 (2 indicates 1-5 copies/cell). Moreover, the L/M result in assay [2] is “L”.

On to “358 (RSE[pS]KDRKL; listed as Homo sapiens) [compound 358]”, for which, in assay [1], the “Copies/cell class, ALL1” value is 1 (1 indicates <1 copy/cell). The L/M entry in assay [2] is “L”.

In the case of “288 (KPPYRSH[pS]L; listed as Homo sapiens) [compound 288]”, in assay [1], the “Copies/cell class, AML1” value is reported as 1 (1 indicates <1 copy/cell); the “Copies/cell class, CLL2” value is listed as 1 (1 indicates <1 copy/cell); the “Copies/cell class, JY” value was 2 (2 indicates 1-5 copies/cell); the “Copies/cell class, ALL1” value is given as 2 (2 indicates 1-5 copies/cell). For the same substance, the “Copies/cell class, HCL1” value in assay [1] is given as 2 (2 indicates 1-5 copies/cell). In addition, the L/M result in assay [2] is recorded as “L”.

In the case of “290 (KPRPPPL[pS]P; listed as Homo sapiens) [compound 290]”, in assay [2], the L/M result is on record as “M”.

With “332 (RPRSL[pS]SPTVTL; listed as Homo sapiens) [compound 332]”, in assay [2], the L/M entry is recorded as “M”.

With “389 (VPR[pS]PKHAHSSSL; listed as Homo sapiens) [compound 389]”, the “Copies/cell class, AML1” value in assay [1] is 1 (1 indicates <1 copy/cell). In addition, the L/M result in assay [2] is “L”.

As for “300 (LPRGS[pS]PSVL; listed as Homo sapiens) [compound 300]”, the L/M entry in assay [2] is “M”.

For “369 (SPFKRQL[pS]L; listed as Homo sapiens) [compound 369]”, the L/M entry in assay [2] is “M”.

“294 (KPR[pS]PPRALVL; listed as Homo sapiens) [compound 294]”: the L/M result in assay [2] is “M”.

Consider “372 (SPK[pS]PTAAL; listed as Homo sapiens) [compound 372]”, for which the L/M entry in assay [2] is listed as “M”.

As for “319 (RPN[pS]PSPTAL; listed as Homo sapiens) [compound 319]”, in assay [1], the “Copies/cell class, CLL2” value is 3 (3 indicates 6-25 copies per cell); the “Copies/cell class, JY” value is recorded as 4 (4 indicates >25 copies per cell); the “Copies/cell class, ALL1” value is reported as 1 (1 indicates <1 copy/cell); the “Copies/cell class, HCL1” value was 1 (1 indicates <1 copy/cell). In assay [1], the “Copies/cell class, B Cell” value is reported as 1 (1 indicates <1 copy/cell) and the “Copies/cell class, T Cell” value is recorded as 1 (1 indicates <1 copy/cell). Further, the “Copies/cell class, CLL4” value in assay [1] (CLL4) is reported as 2 (2 indicates 1-5 copies/cell). The L/M entry in assay [2] is on record as “L”.

On to “370 (SPGLARKR[pS]L; listed as Homo sapiens) [compound 370]”, for which, in assay [1], the “Copies/cell class, AML1” value is 1 (1 indicates <1 copy/cell). In addition, the L/M entry in assay [2] was “L”.

As for “278 (GPR[pS]ASLLSL; not fully specified; listed as Homo sapiens) [compound 278]”, the “Copies/cell class, AML1” value in assay [1] is reported as 3 (3 indicates 6-25 copies per cell). The L/M result in assay [2] is reported as “M”.

Turning to “351 (RPY[pS]PPFFSL; listed as Homo sapiens) [compound 351]”, in assay [1], the “Copies/cell class, AML1” value was 2 (2 indicates 1-5 copies/cell); the “Copies/cell class, JY” value is 2 (2 indicates 1-5 copies/cell); the “Copies/cell class, ALL1” value is on record as 2 (2 indicates 1-5 copies/cell); the “Copies/cell class, B Cell” value is given as 2 (2 indicates 1-5 copies/cell). For the same substance, in assay [1], the “Copies/cell class, T Cell” value is 2 (2 indicates 1-5 copies/cell). Besides, in assay [2], the L/M result was “L”.

For the substance “314 (RPH[pS]PEKAF; listed as Homo sapiens) [compound 314]”, in assay [1], the “Copies/cell class, AML1” value was 1 (1 indicates <1 copy/cell); the “Copies/cell class, CLL2” value is 1 (1 indicates <1 copy/cell); the “Copies/cell class, JY” value is reported as 3 (3 indicates 6-25 copies per cell); the “Copies/cell class, ALL1” value is reported as 1 (1 indicates <1 copy/cell). Moreover, in assay [1], the “Copies/cell class, HCL1” value is 1 (1 indicates <1 copy/cell). Further, in assay [2], the L/M result is reported as “L”.

As to “375 (SPRR[pS]RSI[pS]L; listed as Homo sapiens) [compound 375]”, in assay [2], the L/M result was “L/M”.

For “365 (RTR[pS]PSPTL; listed as Homo sapiens) [compound 365]”, the L/M result in assay [2] is reported as “M”.

With “362 (RSR[pS]PRPAL; listed as Homo sapiens) [compound 362]”, in assay [2], the L/M entry is “M”.

Consider “354 (RRP[pS]YTLGM; listed as Homo sapiens) [compound 354]”, for which, in assay [2], the L/M result was “M”.

Consider “316 (RPI[pS]PGLSY; listed as Homo sapiens) [compound 316]”, for which the L/M result in assay [2] is “L”.

Consider “298 (LPIFSRL[pS]I; listed as Homo sapiens) [compound 298]”, for which the L/M result in assay [2] is reported as “L”.

As to “353 (RRL[pS]GPLHTL; listed as Homo sapiens) [compound 353]”, the L/M entry in assay [2] is reported as “M”.

For “301 (MPRQP[pS]ATRL; listed as Homo sapiens) [compound 301]”, in assay [2], the L/M entry is on record as “M”.

“364 (RTF[pS]PTYGL; listed as Homo sapiens) [compound 364]”: the L/M result in assay [2] is on record as “M”.

For “275 (GAQPGRH[pS]V; listed as Homo sapiens) [compound 275]”, the L/M entry in assay [2] is recorded as “M”.

For the substance “276 (GPRSA[pS]LL[pS]L; listed as Homo sapiens) [compound 276]”, in assay [2], the L/M result is given as “L”.

As for “381 (SPR[pT]PV[pS]PVKF; listed as Homo sapiens) [compound 381]”, the L/M entry in assay [2] is reported as “M”.

“266 (APRKG[pS]FSALM; listed as Homo sapiens) [compound 266]”: in assay [2], the L/M entry is “M”.

In the case of “340 (RPRPV[pS]PSSL; listed as Homo sapiens) [compound 340]”, the L/M entry in assay [2] was “L”.

“311 (RPA[pT]PTSQF; listed as Homo sapiens) [compound 311]”: in assay [2], the L/M entry is “M”.

“293 (KPR[pS]PPRALV; listed as Homo sapiens) [compound 293]”: the L/M result in assay [2] was “M”.

“268 (APR[pS]PPPSRP; listed as Homo sapiens) [compound 268]”: the L/M result in assay [2] was “M”.

For “355 (RR[pS][pS]FLQVF; listed as Homo sapiens) [compound 355]”, the L/M entry in assay [2] is listed as “M”.

Regarding “326 (RPRG[pS]QSLL; listed as Homo sapiens) [compound 326]”, the L/M entry in assay [2] was “M”.

As to “335 (RPR[pS]PPPRAP; listed as Homo sapiens) [compound 335]”, the L/M result in assay [2] is on record as “M”.

Consider “345 (RPS[pT]PKSDSEL; listed as Homo sapiens) [compound 345]”, for which the L/M result in assay [2] is recorded as “L”.

Regarding “271 (FPH[pS]LLSVI; listed as Homo sapiens) [compound 271]”, the L/M entry in assay [2] is listed as “M”.

As to “329 (RPRR[pS]STQL; listed as Homo sapiens) [compound 329]”, the L/M entry in assay [2] is recorded as “M”.

As for “286 (KPP[pS]PSPIEM; listed as Homo sapiens) [compound 286]”, the L/M entry in assay [2] is listed as “L”.

For the substance “357 (RR[pS]SQSWSL; listed as Homo sapiens) [compound 357]”, in assay [2], the L/M entry is “M”.

Regarding “280 (HPRSP[pT]PTL; listed as Homo sapiens) [compound 280]”, the L/M result in assay [2] is given as “M”.

In the case of “281 (KAR[pS]PGRAL; listed as Homo sapiens) [compound 281]”, in assay [2], the L/M entry was “M”.

In the case of “292 (KPR[pS]PPRAL; listed as Homo sapiens) [compound 292]”, in assay [2], the L/M result is on record as “L/M”.

Take “279 (HPR[pS]PTPTL; listed as Homo sapiens) [compound 279]”: the L/M result in assay [2] is on record as “M”.

Consider “341 (RPSGRRE[pS]L; listed as Homo sapiens) [compound 341]”, for which the L/M result in assay [2] was “M”.

With “373 (SPRER[pS]PAL; listed as Homo sapiens) [compound 373]”, in assay [2], the L/M result is reported as “M”.

Turning to “390 (YPS[pS]PRKL; listed as Homo sapiens) [compound 390]”, the L/M entry in assay [2] is reported as “M”.

As to “380 (SPRTPV[pS]PVKF; listed as Homo sapiens) [compound 380]”, the L/M result in assay [2] is given as “M”.
